Experimental data as given in patent publication US10765616B2, “Oral formulation of polyglucosamine derivatives in combination with a non-fermentable sugar” (SYNEDGEN, INC., priority 2013, dated 2020).

Legend:
S. mutans biofilms [1] = test: Comparative biofilm reduction study of oral rinses and active ingredients (MBEC pegs); format: cell-based, Streptococcus mutans; details: 72 h S. mutans biofilms, treated 2 minutes twice (6-hour interval), vs water control, active ingredients at the concentration printed in the row or sentence
Experimental: Biofilms of S. mutans were grown on hydroxyapatite-coated pegs according to MBEC Assay™ methods for 72 hours, and then treated with the oral rinses or a water control. The corresponding active ingredients were also evaluated. The biofilms were exposed for 2-minutes, twice in a 6-hour interval to evaluate biofilm removal. Following treatment, biofilms were rinsed, fixed, and stained with 0.4% Crystal Violet, and remaining biofilm was quantitated via CFU or OD595 (Beenken and Smeltzer, 2003). Biofilms were analyzed in triplicate in at least 3 independent assays. Ratios were averaged from all assays and the percent biofilm reduced and standard error compared to water control is shown.

A431 epithelial cells = tested on: A431 epithelial cells
Experimental: Human epithelial cell monolayers of A431 (ATCC CRL-1555) were seeded in tissue culture treated 96-well plates at a density of 2×10^4 cells/well in DMEM media supplemented with 10% FBS, 1% Penicillin-Streptomycin, and 1% Amphotericin B. Seeded cells were incubated at 37° C. with 5% CO2 for 48 hours. The media was removed and replaced with serum-free, antimicrobial-free media and rinsed one time for 30 seconds with PAAG Oral Formulation H, other oral products (Biotene, Corsodyl, Peroxyl, or Listerine), 32 μg/mL PAAG (30% functionalized, 86 kDa) and other active ingredients (0.029% lactoferrin, 0.2% chlorhexidine gluconate, 1.5% hydrogen peroxide, or 20% alcohol). Epithelial cell viability was determined by ATPLite Luminescence ATP Detection Assay System (PerkinElmer). Testing was done in duplicate.
Epithelial cell viability was compared between PAAG and other oral active ingredients and oral rinse products. Human epithelial cell monolayers were rinsed once for 30 seconds with each treatment. Following treatment, the epithelial cells were evaluated with ATP LITE Luminecence assay that measured viability via ATP. The data was normalized to untreated cells to compare percent survival (FIG. 4). […] Epithelial cell viability was determined by ATPLite Luminescence ATP Detection Assay System (Perkin Elmer) and compared to media rinsed cells.

S. mutans biofilms [2] = test: MBEC peg biofilm biomass reduction assay of active ingredients (twice daily, OD595); format: cell-based, Streptococcus mutans; details: 2 minutes, 8-hour interval, 32 μg/mL PAAG, 1.5% hydrogen peroxide, alcohol, lactoferrin, chlorhexidine
Experimental: The S. mutans biofilms were grown according to MBEC™ for High-throughput Screening methods (Innovotech) on a hydroxyapatite-coated peg lid placed in trough containing BHI media supplemented with 1% sucrose rocking for 72 hours. The pegs were treated twice daily with PAAG (30% functionalized, 86 kD) active ingredients (FIG. 9) at 8-hour intervals for 2-minutes. The biofilms were rinsed in PBS, and the pegs were removed and placed into 200 μl 95% ethanol each for 2 minutes to fix the biofilms. The MBEC-HTP biofilms were stained with 150 μl of 3% Crystal Violet dye each for 2 minutes, and rinsed five times with PBS. It was noted that chlorhexidine appears to “fix” the biofilm to the pegs. The bacteria may or may not be viable because OD measured biofilm biomass, not viable CFUs. The stained and rinsed MBEC-HTP biofilms were then placed in 150 μL ethanol for 1-minute to remove the dye/biofilm. Then 100 μL of the ethanol and dyed biofilm suspension was placed into a 96-well plate and the OD595 was measured to quantify the remaining stained biofilm biomass.

B1: lactoferrin (protein, UniProt P02788 20-710, looked up)
Lactotransferrin: GRRRSVQWCAVSQPEATKCFQWQRNMRKVRGPPVSCIKRDSPIQCIQAIAENRADAVTLDGGFIYEAGLAPYKLRPVAAEVYGTERQPRTHYYAVAVVKKGGSFQLNELQGLKSCHTGLRRTAGWNVPIGTLRPFLNWTGPPEPIEAAVARFFSASCVPGADKGQFPNLCRLCAGTGENKCAFSSQEPYFSYSGAFKCLRDGAGDVAFIRESTVFEDLSDEAERDEYELLCPDNTRKPVDKFKDCHLARVPSHAVVARSVNGKEDAIWNLLRQAQEKFGKDKSPKFQLFGSPSGQKDLLFKDSAIGFSRVPPRIDSGLYLGSGYFTAIQNLRKSEEEVAARRARVVWCAVGEQELRKCNQWSGLSEGSVTCSSASTTEDCIALVLKGEADAMSLDGGYVYTAGKCGLVPVLAENYKSQQSSDPDPNCVDRPVEGYLAVAVVRRSDTSLTWNSVKGKKSCHTAVDRTAGWNIPMGLLFNQTGSCKFDEYFSQSCAPGSDPRSNLCALCIGDEQGENKCVPNSNERYYGYTGAFRCLAENAGDVAFVKDVTVLQNTDGNNNEAWAKDLKLADFALLCLDGKRKPVTEARSCHLAMAPNHAVVSRMDKVERLKQVLLHQQAKFGRNGSDCPDKFCLFQSETKNLLFNDNTECLARLHGKTTYEKYLGPQYVAGITNLKKCSTSPLLEACEFLRK
- Percent (%) Biomass Reduced (S. mutans biofilms [1]): 25.6 ± 4.3%
- Percent (%) Biomass Reduced (S. mutans biofilms [1]; listed as lactoferrin): 25.6±4.3%
- epithelial cell viability (A431 epithelial cells): maintain epithelial cell viability
- reduction in S. mutans biofilm biomass compared to water control (S. mutans biofilms [2]): did not significantly reduce
